Experimental data as given in patent US20240270857A1 (CHIA TAI TIANQING PHARMACEUTICAL GROUP, published 2024).

Columns and labels:
[1] = molecular target: T1, Human IL-1Rrp2/IL-1R6 protein, His Tag (ACROBiosystems, IL2-H52H6) (human, UniProt Q9HB29 20-335); assay: BLI (ForteBio Octet), antibody on ProA sensor, 1:1 model
T1 construct: Bought protein; the soluble protein is likely only the extracellular part; also called hIL-36R; human IL36R antigen; not shown: His tag
T1 sequence: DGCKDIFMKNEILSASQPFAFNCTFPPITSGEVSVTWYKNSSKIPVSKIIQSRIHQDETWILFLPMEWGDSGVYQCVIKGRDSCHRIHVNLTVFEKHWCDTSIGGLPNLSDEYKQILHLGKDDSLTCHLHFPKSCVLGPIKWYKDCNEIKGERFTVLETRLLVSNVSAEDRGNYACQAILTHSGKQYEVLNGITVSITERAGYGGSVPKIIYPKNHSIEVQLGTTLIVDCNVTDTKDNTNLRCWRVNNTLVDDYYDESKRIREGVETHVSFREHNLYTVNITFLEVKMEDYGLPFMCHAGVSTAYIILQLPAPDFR
Procedure: The affinity of anti-IL-36R antibodies to CynoIL36R-ECD mFc and human IL-1Rrp2/IL-IR6 protein, His Tag (ACROBiosystems, IL2-H52H6) was measured by a ForteBio molecular interaction instrument. […] And then the biosensor was used to bind CynoIL36R-ECD mFc or human IL-1Rrp2/IL-1R6 protein, His Tag which was diluted by a gradient (the initial concentration was 200 nM, 2-fold gradient dilution), the response signals were detected in real time using a Fortebio molecular interaction instrument (SARTORIUS, octet red 96e), and association and dissociation curves were obtained. After the completion of dissociation in each cycle, the biosensor was regenerated for the next capture; the procedure was repeated until the affinity of the different anti-IL-36R antibodies for IL-36R was determined. The resulting data were analyzed by Fortebio Data Analysis 11.0 software in a 1:1 (Langmuir) binding model to determine kₐ (kₒₙ) and kd (koff) values, and the dissociation constant KD was calculated by KD=kd/kₐ. The detection method essentially followed the manufacturer's recommendations, and more information could be found at www.fortebio.com.
Affinity, binding and blocking assays for humanized antibodies hz72C1-1.1, hz72C1-1.2, hz72C1-1.3, hz72C1-2.1, hz72C1-2.2 and hz72C1-2.3 as well as hz84C4-1.1, hz84C4-1.2, hz84C4-1.3, hz84C4-1.4, hz84C4-1.5, hz84C4-2.1, hz84C4-2.2, hz84C4-2.3, hz84C4-2.4 and hz84C4-2.5 were performed according to the methods of Example 4, Example 5. Example 6, Example 7 and Example 8.

[2] = molecular target: T2, IL-36R naturally expressed on OVCAR8 cells and on normal human epidermal keratinocytes (NHK cells) (human, UniProt Q9HB29 20-575); assay: cell-based or functional assay
T2 sequence (looked up): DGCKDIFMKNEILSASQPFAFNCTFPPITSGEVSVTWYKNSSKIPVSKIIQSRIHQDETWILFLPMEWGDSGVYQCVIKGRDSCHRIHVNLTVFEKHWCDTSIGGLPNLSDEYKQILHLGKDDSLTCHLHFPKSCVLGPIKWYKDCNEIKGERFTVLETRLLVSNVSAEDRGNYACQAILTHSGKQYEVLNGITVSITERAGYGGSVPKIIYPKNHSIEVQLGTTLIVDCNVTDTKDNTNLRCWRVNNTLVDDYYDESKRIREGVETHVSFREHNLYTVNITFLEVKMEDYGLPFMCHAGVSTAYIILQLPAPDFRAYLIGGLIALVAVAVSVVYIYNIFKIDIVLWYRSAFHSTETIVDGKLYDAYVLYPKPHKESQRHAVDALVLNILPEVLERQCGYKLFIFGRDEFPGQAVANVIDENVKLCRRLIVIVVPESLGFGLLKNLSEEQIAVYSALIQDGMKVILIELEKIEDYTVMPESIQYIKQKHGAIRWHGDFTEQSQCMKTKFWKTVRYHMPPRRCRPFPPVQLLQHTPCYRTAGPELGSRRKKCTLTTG

[3] = molecular target: T1, Human IL-1Rrp2/IL-1R6 protein, His Tag …; assay: ELISA, plate coated with human IL-1Rrp2/IL-1R6 His Tag, HRP-protein A/G, OD450
Procedure: The binding activity of anti-IL-36R antibodies to IL-36R was analyzed by ELISA using human IL-1Rrp2/IL-1R6 protein, His Tag (ACROBiosystems, IL2-H52H6) and CynoIL36R-ECD mFc (for detection of chimeric and humanized antibodies), and hIL36R-ECD hFc and CynoIL36R-ECD hFc protein (for detection of hybridoma antibodies) as antigens. A 96-well plate (Costar, 9018) was coated with 2 μg/mL antigen at 100 μL/well and incubated overnight at 4° C. After the 96-well plate was washed with a washing buffer (PBS containing 0.05% v/v Tween 20), a blocking buffer (PBS containing 2% bovine serum albumin) was added for blocking at 37° C. for 2 h. After the 96-well plate was washed with the washing buffer, 100 μL of the gradient diluted anti-IL-36R antibody of the present disclosure or the reference antibody BI655130 (the initial concentration of the antibody was 66 nM, 4-fold gradient dilution) was added to each well, and the plate was incubated at room temperature for 1 h. After the 96-well plate was washed with the washing buffer, 100 μL of horseradish peroxidase-conjugated recombinant protein A/G (TheroScientific, 32490) was added to each well, and the plate was incubated at room temperature for 1 h. After the 96-well plate was washed with the washing buffer, 100 μL of a TMB solution (Thermo, 00-4201-56) was added to each well, and the plate was incubated at room temperature for 2 min. Finally, 100 μL of a stop solution (2 N H₂SO₄) was added to each well to stop the reaction. Absorbance was read at 450 nm using a microplate reader (PE, Envision), the resulting data was analyzed using GraphPad Prism, and EC₅₀ was calculated. Binding EC₅₀ of the chimeric anti-IL-36R antibodies to hIL-36R in an ELISA assay is shown in FIG. 1. and binding EC₅₀ of the chimeric anti-IL-36R antibodies to CynoIL-36R in an ELISA assay is shown in FIG. 2. The binding of BI655130 is shown as a control, and the binding of IgG4 is shown as a negative control.

Row | Binder | Kd [1] | koff [1] | kon [1] | IC50 (M); hIL36α; IL-8 production [2] | IC50 (M); hIL36αβγ; IL-8 production [2] | IC50 (M); hIL36β; IL-8 production [2] | IC50 (M); hIL36γ; IL-8 production [2] | Maximum inhibition rate %; hIL36α; IL-8 production [2] | Maximum inhibition rate %; hIL36αβγ; IL-8 production [2] | Maximum inhibition rate %; hIL36β; IL-8 production [2] | Maximum inhibition rate %; hIL36γ; IL-8 production [2] | EC50 [3]
1 | chimeric 72C1 antibody (antibody, human IgG4 S228P, kappa, Mouse variable regions on human IgG4 / kappa; also called xi72C1) heavy: not shown light: EILLTQSPAIMSATLGEKVTMSCRASSNVRYMYWYQLKSGASPKLWIYLTSNLASGVPARFSGSGSGTSYSLTISSVEAEDAATYFCQQFTTSPYTFGGGTKLEIKRTVAAPSVFIFPPSDEQLKSGTASVVCLLNNFYPREAKVQWKVDNALQSGNSQESVTEQDSKDSTYSLSSTLTLSKADYEKHKVYACEVTHQGLSSPVTKSFNRGEC | 736 pM | 4.38e-05 s⁻¹ | 59600 M⁻¹ s⁻¹ |  |  |  |  |  |  |  |  | 
2 | hz72C1-1.2 (antibody, human IgG4 S228P, kappa, Humanized, human IgG4 / kappa) heavy: not shown light: DIQMTQSPSSLSASVGDRVTITCRASSNVRYMYWYQQKPGKAPKLWIYLTSNLASGVPSRFSGSGSGTSYTLTISSLQPEDFATYYCQQFTTSPYTFGQGTKLEIKRTVAAPSVFIFPPSDEQLKSGTASVVCLLNNFYPREAKVQWKVDNALQSGNSQESVTEQDSKDSTYSLSSTLTLSKADYEKHKVYACEVTHQGLSSPVTKSFNRGEC | 35.1 pM | 3.91e-06 s⁻¹ | 111000 M⁻¹ s⁻¹ | 1.19e-10 M | 3.29e-10 M | 4.33e-10 M | 1.14e-10 M | 96.1% | 89.6% | 84.7% | 85.7% | 
3 | hz72C1-2.1 (antibody, human IgG4 S228P, kappa, Humanized, human IgG4 / kappa) heavy: not shown light: DIQMTQSPSSLSASVGDRVTITCRASSNVRYMYWYQQKPGKAPKLWIYLTSNLASGVPSRFSGSGSGTSYTLTISSLQPEDFATYYCQQYTTSPYTFGQGTKLEIKRTVAAPSVFIFPPSDEQLKSGTASVVCLLNNFYPREAKVQWKVDNALQSGNSQESVTEQDSKDSTYSLSSTLTLSKADYEKHKVYACEVTHQGLSSPVTKSFNRGEC | 11.1 pM | 7.81e-07 s⁻¹ | 70400 M⁻¹ s⁻¹ | 1.13e-09 M | 1.78e-09 M | 1.41e-09 M | 2.41e-10 M | 93.5% | 84.6% | 82.1% | 94.1% | 
4 | hz72C1-2.2 (antibody, human IgG4 S228P, kappa, Humanized, human IgG4 / kappa) heavy: not shown light: DIQMTQSPSSLSASVGDRVTITCRASSNVRYMYWYQQKPGKAPKLWIYLTSNLASGVPSRFSGSGSGTSYTLTISSLQPEDFATYYCQQYTTSPYTFGQGTKLEIKRTVAAPSVFIFPPSDEQLKSGTASVVCLLNNFYPREAKVQWKVDNALQSGNSQESVTEQDSKDSTYSLSSTLTLSKADYEKHKVYACEVTHQGLSSPVTKSFNRGEC | < 1 pM | < 1e-07 s⁻¹ | 62400 M⁻¹ s⁻¹ | 2.45e-10 M | 1.49e-09 M | 1.1e-09 M | 1.18e-09 M | 97.3% | 85.3% | 82.5% | 89% | 
5 | hz72C1-1.1 (antibody, human IgG4 S228P, kappa, Humanized, human IgG4 / kappa; also called humanized 72C1 antibody 1.1) heavy: not shown light: DIQMTQSPSSLSASVGDRVTITCRASSNVRYMYWYQQKPGKAPKLWIYLTSNLASGVPSRFSGSGSGTSYTLTISSLQPEDFATYYCQQFTTSPYTFGQGTKLEIKRTVAAPSVFIFPPSDEQLKSGTASVVCLLNNFYPREAKVQWKVDNALQSGNSQESVTEQDSKDSTYSLSSTLTLSKADYEKHKVYACEVTHQGLSSPVTKSFNRGEC | 160 pM | 1.81e-05 s⁻¹ | 113000 M⁻¹ s⁻¹ | 2.19e-10 M | 3.72e-10 M | 3.85e-10 M | 1.21e-10 M | 99% | 93.7% | 86.7% | 102% | 
6 | hz72C1-2.3 (antibody, human IgG4 S228P, kappa, Humanized, human IgG4 / kappa) heavy: not shown light: DIQMTQSPSSLSASVGDRVTITCRASSNVRYMYWYQQKPGKAPKLWIYLTSNLASGVPSRFSGSGSGTSYTLTISSLQPEDFATYYCQQYTTSPYTFGQGTKLEIKRTVAAPSVFIFPPSDEQLKSGTASVVCLLNNFYPREAKVQWKVDNALQSGNSQESVTEQDSKDSTYSLSSTLTLSKADYEKHKVYACEVTHQGLSSPVTKSFNRGEC | 177 pM | 1.12e-05 s⁻¹ | 63300 M⁻¹ s⁻¹ | 1.8e-10 M | 4.5e-09 M | 2.67e-09 M | 5.6e-10 M | 82% | 80% | 78.3% | 90.8% | 
7 | hz72C1-1.3 (antibody, human IgG4 S228P, kappa, Humanized, human IgG4 / kappa) heavy: not shown light: DIQMTQSPSSLSASVGDRVTITCRASSNVRYMYWYQQKPGKAPKLWIYLTSNLASGVPSRFSGSGSGTSYTLTISSLQPEDFATYYCQQFTTSPYTFGQGTKLEIKRTVAAPSVFIFPPSDEQLKSGTASVVCLLNNFYPREAKVQWKVDNALQSGNSQESVTEQDSKDSTYSLSSTLTLSKADYEKHKVYACEVTHQGLSSPVTKSFNRGEC | 74.3 pM | 8.8e-06 s⁻¹ | 119000 M⁻¹ s⁻¹ | 7.09e-11 M | 3.82e-10 M | 2.4e-10 M | 1.03e-10 M | 97.3% | 90.3% | 90.3% | 93.5% | 
8 | hz84C4-1.1 (antibody, human IgG4 S228P, kappa, V domains shown, Humanized, human IgG4 / kappa) VH: QVQLVQSGAEVKKPGASVKVSCKASGYFFTSYWMNWVRQAPGQGLEWMGMIHPYDSETRYAQKFQGRVTMTVDKSTSTVYMELSSLRSEDTAVYYCASSTTAFAYWGQGTLVTVSS VL: DIQMTQSPSSLSASVGDRVTITCRASQDIGNALNWYQQKPGKAPKRLIYATSSLDPGVPSRFSGSRSGTDFTLTISSLQPEDFATYYCLQYASSPYTFGQGTKVEIKR |  |  |  |  |  |  |  |  |  |  |  | 509 pM
